Source: the nanobody polyreactivity screen of Harvey et al. (2022)

Test: yeast display, Sf9 membrane polyspecificity reagent, FACS + sequencing; frameworks hold sequencing errors
Outline: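 Genes from sorted yeast were amplified by colony PCR, read by MiSeq 2 × 250 sequencing and filtered on CDR length. These cells carried a synthetic nanobody library in Saccharomyces cerevisiae BJ5465 and were sorted by FACS into low and high (top ~1%) gates on anti-HA and streptavidin fluorescence. Polyreactivity is labelled according to the gate of origin.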

Row | Sequence | polyreactivity (PSR sort gate)
1 | QVQLVESGGGLVQAGGSLRLSCAATGSIFGKYAMGWSRQAPGKERELVAVITWSGGSTYYADSVKGRFTISRDNAKNTVYLQMNSLKPEDTAVYYCNAANTGSQDYQSIGYNFNYWGQGTQVTVSS | low polyreactivity
2 | QVQLVESGGGLVQAGGSLRLSCAATGSIFSYYDMAWYRQAPGNERELVAGISRGGSTNYADSVKGRFTISRDNGKNTVYLQMNSLKEEDTAVYYCNADQSSRTYPFRRSRRSWLYGYWGQGTQVTVSS | low polyreactivity
3 | QVQLVESGGGLVQAGGSLRLSCAATGSIFWVNGMGWYRQAPGKERELVAAITWSGGSTYYADSVKGRFTISRDNAKNTVYLQMNSLKPEDTAVYYCADYGQYYLWDGYGYWGQGTQVTVSS | low polyreactivity
4 | QVQLVESGGGLVQAGGSLRLSCAATGSIFYHYAMGWYRQAPGKERELVAAISGSGGSTYYADSVKGRFTISRDNAKNTVYLQMNSLKPEDTAVYYCAADTSRYHYSRYFFDSDYWGQGTQVTVSS | low polyreactivity
5 | QVQLVESGGGLVQAGGSLRLSCAATGSIINRYVMGWYRQAPGKEREFVAAIRNTGGSTYYADSVKGRFTISRDNAKNTVYLQMNSLKPEDPAVYYCAAVYRSAYDGLDHGYRRHDYWGQGTQVTVSS | high polyreactivity
6 | QVQLVESGGGLVQAGGSLRLSCAATGSIISVNTMGWYRQAPGKERELVATIRTGDSTNYADSVKGRFTISRDNAKYTVYLQMNSLKPEDTAVYYCAAEWSSLNFDYWGQGTQVTVSS | low polyreactivity
7 | QVQLVESGGGLVQAGGSLRLSCAATGSIVYSNTMGWYRQSPGKERELVAAISTSDTSTYYADSVKGRFTISRDNGKNTVYLQMNSLKPQDTAVYYCNAVCSIVLYGYWGQGTQVTVSS | low polyreactivity
8 | QVQLVESGGGLVQAGGSLRLSCAATGSTFARYAMGWSRQAPGKERELVAAISRRGGSTYYADSVTGRFTLSRDNAKNTVYLQMNSLNQEDTAVDSCAARYGIISSFEYDYWGQGTQVTVSS | high polyreactivity
9 | QVQLVESGGGLVQAGGSLRLSCAATGSTFATNAMGWYKQAPGKEREFVAAISRRGGRTYYADSVKGRFTISRDNAKNTVYLKMNSVKPEDTAVYYCNTLRVGWGQGTQVTVSS | high polyreactivity
10 | QVQLVESGGGLVQAGGSLRLSCAATGSTFGGNAMGWYRQAPGKERELVAAISSSGGSTYYADSVKGRFTISRDNAKNTVYLQRNRLKPEDTAVYYCAALYHWTYDYWGQGTQVTVSS | low polyreactivity
11 | QVQLVESGGGLVQAGGSLRLSCAATGSTFYHYAMGWYRQAPGKEREFVAAISTSGGRTYYADSVKGRFTISRDNAKNTVYLQMNSLKPEDTAVYYCAARPGSWYPSVPSYNYWGQGTQVTVSS | low polyreactivity
12 | QVQLVESGGGLVQAGGSLRLSCAATGSTSVHNAMGWYRQAPGKERELVDAITSDGSTNYADSVKGRFTISRDNAKNTVYLQMNSLKPEDTAVYFCGAAYWTRLRRMDYWGQGTQVTVSS | low polyreactivity
13 | QVQLVESGGGLVQAGGSLRLSCAATGSTYPRNDRGWYRQAPGKERELVAAISRGGSTNYADSVKGRFTISRDNAKNTVYLQMNSLKPEDTAVYFCAAQIFESAYGMDYWGQGTQVTVSS | low polyreactivity
14 | QVQLVESGGGLVQAGGSLRLSCAATGTFIIYAMGRYRQAPGKERELVATISTGGSTNYADSVKGRFTISRDNAKNTVYLQMNSLKPEDTAVYYCAAEWLYPHDGGYPRPMDYCGQGTQVTVSS | low polyreactivity
15 | QVQLVESGGGLVQAGGSLRLSCAATGYIFSHYAMGWYRQAPGKERELVAAITRSGGSTYYADSVKGRFTISRDNAKNTVYLQMNSLKPEVTAVYYCAASSLFYYWGQGTQVTVSS | high polyreactivity
16 | QVQLVESGGGLVQAGGSLRLSCAATGYTFFRNTMGWYRQAPGKESELVAVITKSGGSTYYADSVKWRFTISRDNAKNTVYLHMNSLIPEDTAVYYCNAVTALRNTEYNYWGQGTQVTVSS | high polyreactivity
17 | QVQLVESGGGLVQAGGSLRLSCAAYASTLANYALGWYRQSPGKERELVAAINSGGSTYYADSVKGRFTISRDNAKNTVYLQMNSLKPEDTAVYYCAARYASPRYKSKMDYWGQGTQVTVSS | high polyreactivity
18 | QVQLVESGGGLVQAGGSLRLSCAAYGFIFIGYTMGWYRQAPGKERELVATISLGDDSTYYADSVKGRFTISRDNAKNTVYLQMNSLKPEDTAVYYCAADQIDGTTSAYDYWGQGTQVTVSS | low polyreactivity
19 | QVQLVESGGGLVQAGGSLRLSCAAYGFIFRNYAMGWDRQAPGKERELVAAITWRGGSTYYADSVKGRFTISRDNAKNTVYLQMNSLKPEDTAVYYCAARGYRSREDYWGQGTQVTVSS | high polyreactivity
20 | QVQLVESGGGLVQAGGSLRLSCAAYGFIFVRYAMGWYRQAPGKERELVAAISWRGGSTYYADSVKGRFTISRDNAKNTVYLQMNSLKPEDNAVYYCAGAVYQRARYYWGQGTQVNVSS | high polyreactivity
21 | QVQLVESGGGLVQAGGSLRLSCAAYGFIYRYYAMGWNRQAPGKERELVPGISVSGGGTYYADSVKGRFTISRDNAKNTVNLQMNSLKPEDTAVYYCAAERTFLYWAYDYWGQGTQVNVSS | high polyreactivity

Row | Sequence | polyreactivity (PSR sort gate)
22 | QVQLVESGGGLVQAGGSLRLSCAAYGHFFAIYAMGWYSQAPGKEREFVAAITFTTRTYYADSVKGRFTISRDNAKNTVYLQMNSLKPEDTAVYYCAAGGYGEEYDYWGQGTQVTVSS | low polyreactivity
23 | QVQLVESGGGLVQAGGSLRLSCAAYGIIFYYYAMGWYRQAPGKERELVAAITGTGSRTYYADSVKGRFTISRDNAKNTVYLQMNSLKPEDTAVYYCNARSFATGSEVPARGYWGQGTQVTVSS | high polyreactivity
24 | QVQLVESGGGLVQAGGSLRLSCAAYGINFYKYAMVWSRQAPGQERELVASITKSAGSTNYADSDKGRFTISRDNAMNTVYLQMNSLKPEDTAVYYCAARRFTFNLFDYWGQGTQVTVSS | high polyreactivity
25 | QVQLVESGGGLVQAGGSLRLSCAAYGITLYKYAMGWYRQAPGKERELVASISRSGGSTYYADSVKGRFTISRDNAKNTVYLEMNSLKPEDTAVYYCAKAVWWSRPAQKSYLYYYWGHGTQVTVSS | high polyreactivity
26 | QVQLVESGGGLVQAGGSLRLSCAAYGNIFDGNAMGWYRQAPGKERELVAAITGRGGGTYYADSVKGRFTISRDNAKNTVYLLMNSLKPEDTAVYYCNKYYYRGGMDYWGQGTQVNVSS | high polyreactivity
27 | QVQLVESGGGLVQAGGSLRLSCAAYGPTFRYNTMGWNRQAPGKERELDARITWSGGSTYYADSVKGRFTISRDNAKNTVYLQMNSLKPEDTAVYYCAAVPILVYRWFQSYTGDYDYWGQGTHVTVSS | low polyreactivity
28 | QVQLVESGGGLVQAGGSLRLSCAAYGRIFAYYTMGWYRQAPGKERELVAAINQSGGSTYYADSVKGRFTISRDNAKNTVYFQMNSLKPEDTAVYYCAAKPYSLYARRYAYDYWGQGTQVTVSS | low polyreactivity
29 | QVQLVESGGGLVQAGGSLRLSCAAYGRIFFYYVMGWYRQAPGNERELVAGITRGGISNYADSVKGRFTISRDNAKNTVYLQMNSLKPEDTAVYYCAAAYYRDSDRRYNYWGQGTQVTVSS | high polyreactivity
30 | QVQLVESGGGLVQAGGSLRLSCAAYGRIFGGYAMGWYRQAPGKERELVAAISRRGGSTYYADSVKGRFTISRDNAKNTVYLQMNSLKPEDTAVYYCNAVLSVQARLTRVDYDYWGQGTEVTVSS | high polyreactivity
31 | QVQLVESGGGLVQAGGSLRLSCAAYGRIFPLNAMGWNRQAPGKERELVAAISYDGGTYYAYSVKGRFTISRDNAKNTFYLQMNSLKPEDTAVYYCANSRATWVGKHDYWGQGTQVTVSS | low polyreactivity
32 | QVQLVESGGGLVQAGGSLRLSCAAYGRIFRYNAMGWSTQAPGKERELVAAISRGGSSTYYADSVKGRFTISRDNAKNTVYLQMNSLQPEDTAVYYCNARSVVREFNNWGQGTQVTVSS | high polyreactivity
33 | QVQLVESGGGLVQAGGSLRLSCAAYGRIFRYYAMGWYRQAPGKERELVVAISRSGSSTYYADSVKGRFTISRDNAKNTVYLQMNSLKPEDTAFYYCAAKLADQTRGTTSDSWGQGTQVTVSS | high polyreactivity
34 | QVQLVESGGGLVQAGGSLRLSCAAYGRTFFSYTMGWYRQAPGKERELVASITWSGGSTYYADSVKGRFTISRDNAKNTVYLQMNSLKPEDTAVYYCAADEKLYITGYDYWGQGTQVNVSS | low polyreactivity
35 | QVQLVESGGGLVQAGGSLRLSCAAYGRTFRIYAMGWYRQAPGKERELVATITWRAGSTYYADSVKGRFTISRDNAKYTVYLQMNSLKPEDTAVYYCAADVSAYSGGYWLDYWGQGTQVTVSS | high polyreactivity
36 | QVQLVESGGGLVQAGGSLRLSCAAYGRTFRKNAMGWYRQAPVKERELVASMSKNGAGTYYADSVKGRFTISRDTAKNTVYLQMNSLKPEDTAVYYCAKLPNLPGDYWGQGTQVTVSS | low polyreactivity
37 | QVQLVESGGGLVQAGGSLRLSCAAYGRTFWPNAMGWYRQAPGKERELVAAFSRRSGSTYYADSVKGRFTISRDNAKNTVYLQMNSLKPEDTAVYYCAAKYRAHGNHSWGQGTQVTVSS | high polyreactivity
38 | QVQLVESGGGLVQAGGSLRLSCAAYGSIFFGNVMGWYRQAPGKARELVAVISWSGGTTYYADSVKGRFTISRDNAKNTVYLQMNSLKPEDTAVYYCNARYLRRGDYWGQGTQVTVSS | low polyreactivity
39 | QVQLVESGGGLVQAGGSLRLSCAAYGSIFLYNALGGYIQAPGKEMELVADITSAGRTYYADSVKGRFTISRDNAKNTVYLQMNSLKPEDTAVYYCNKDYQYHFSWYGYWGQGTQVTVSS | low polyreactivity
40 | QVQLVESGGGLVQAGGSLRLSCAAYGSIFRLYAIGWSRQAPGKDRELVAAISSVGRTYYAYSVKGRFTISRDNAKNTVYLQMNSLKPEDSAVYYCAARPYKFARYDYWGQGTQVTVSS | high polyreactivity
41 | QVQLVESGGGLVQAGGSLRLSCAAYGSIFRSYAMGWYRQAPGKERELVAAISSRYGSTYYADSVKGRFTISRDNAKNTVYLQMNSLKPEDTAVYYCGSQHRHSYGYWGQGTQVTVSS | high polyreactivity
